Results reported in article PMC7532178, “Interaction of protocadherin-15 with the scaffold protein whirlin supports its anchoring of hair-bundle lateral links in cochlear hair cells” (Scientific Reports, 2020).
Each block holds one molecule with its values, some of them ahead of it. No end group written: not given here. *: point of attachment. Biotin = O=C1N[C@H]2[C@H](CS[C@H]2CCCCC(=O)*)N1; TTDS = trioxatridecan-succinamic acid spacer

How the values were obtained:
[1] = target: PCDH15-CD1 C-terminal peptide (biotin-TTDS-…) (mouse); assay: SPR; harmonin fragments or full-length harmonin-a1 with C-terminal peptides; Fig. S10 and data not shown
[2] = target: PCDH15-CD2 C-terminal peptide (biotin-TTDS-…) (mouse); assay: as above
[3] = target: PCDH15-CD3 C-terminal peptide (biotin-TTDS-…) (mouse); assay: as above
[4] = target: T1, PCDH15-CD1 C-terminal peptide (biotin-TTDS-GIDVQPHSQSTSL) (mouse); assay: as above; conditions: both partners purified
T1 construct: C-terminal 13 aa of protocadherin-15 isoform CD1, including the PBM; source: synthetic peptide (Eurogentec); not shown: biotin, N-terminal, kept
T1 peptide: {Biotin-TTDS}-GIDVQPHSQSTSL

[5] = target: T2, PCDH15-CD2 C-terminal peptide (biotin-TTDS-GANSEQYNTAL) (mouse); assay: as above; conditions: both partners purified
T2 construct: C-terminal 11 aa of protocadherin-15 isoform CD2, including the PBM; source: synthetic peptide (Eurogentec); not shown: biotin, N-terminal, kept
T2 peptide: {Biotin-TTDS}-GANSEQYNTAL

[6] = target: T3, PCDH15-CD3 C-terminal peptide (biotin-TTDS-MGPWNSLHIPMTKL) (mouse); assay: as above; conditions: both partners purified
T3 construct: C-terminal 14 aa of protocadherin-15 isoform CD3, including the PBM; source: synthetic peptide (Eurogentec); not shown: biotin, N-terminal, kept
T3 peptide: {Biotin-TTDS}-MGPWNSLHIPMTKL

[7] = target: T4, whirlin-NTR-PDZ1-Hp1 (aa residues 2-265) (mouse, UniProt Q80VW5-1 2-265); assay: SPR; ProteOn XPR 36; N-terminally biotinylated peptides captured on a Neutravidin NLC sensor chip, whirlin fragments flowed as analytes at 20 μL/min for 2 min; 250 mM NaCl, 50 mM Tris pH 7.5, 0.5 mM TCEP; steady-state fit Req = (Rmax*C)/(Kd+C); mean of three experiments; Figure 4B shows the responses at 10 μM; conditions: both partners purified
T4 construct: extra 7 aa at the N-terminus of all recombinant proteins of the study; whirlin (long isoform, L-whirlin), residues 2-265: NTR (with HHD1), PDZ1 and hairpin Hp1; The methods call the 2-265 construct whirlin-NTR-PDZ1; also called NTR-PDZ1-Hp1 whirlin fragment; Nter-PDZ1-Hp1; source: E. coli BL21 (DE3) codonPlus-RIPL, purified (Glutathione Sepharose 4B, GST removed by TEV proteinase, SEC)
T4 sequence: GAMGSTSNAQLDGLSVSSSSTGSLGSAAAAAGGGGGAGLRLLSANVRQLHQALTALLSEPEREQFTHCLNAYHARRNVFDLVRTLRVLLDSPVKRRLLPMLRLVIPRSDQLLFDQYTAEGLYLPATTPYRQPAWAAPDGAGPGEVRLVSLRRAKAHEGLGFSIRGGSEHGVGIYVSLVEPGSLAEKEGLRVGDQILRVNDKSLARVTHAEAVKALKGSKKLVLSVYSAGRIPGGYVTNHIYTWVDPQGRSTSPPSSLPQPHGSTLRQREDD

[8] = target: T4, whirlin-NTR-PDZ1-Hp1 (aa residues 2-265); assay: as above; conditions: both partners purified; remark: listed apart in the source
[9] = target: T5, whirlin PDZ1-Hp (aa residues 137-246) (mouse, UniProt Q80VW5-1 137-246); assay: as above; conditions: both partners purified
T5 construct: extra 7 aa at the N-terminus of all recombinant proteins of the study; whirlin, residues 137-246: PDZ1 with its hairpin extension Hp1; also called PDZ1 + Hp1; whirlin PDZ1-Hp1 fragment
T5 sequence: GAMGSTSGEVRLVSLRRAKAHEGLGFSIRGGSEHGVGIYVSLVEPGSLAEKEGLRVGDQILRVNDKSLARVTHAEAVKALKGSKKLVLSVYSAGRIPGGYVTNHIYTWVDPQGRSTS

[10] = target: T6, whirlin-PDZ1 (aa residues 137-228) (mouse, UniProt Q80VW5-1 137-228); assay: as above; conditions: both partners purified
T6 construct: extra 7 aa at the N-terminus of all recombinant proteins of the study; whirlin, residues 137-228: PDZ1 domain; also called whirlin PDZ1 domain alone; source: E. coli BL21 (DE3) codonPlus-RIPL, purified (Glutathione Sepharose 4B, GST removed by TEV proteinase, SEC)
T6 sequence: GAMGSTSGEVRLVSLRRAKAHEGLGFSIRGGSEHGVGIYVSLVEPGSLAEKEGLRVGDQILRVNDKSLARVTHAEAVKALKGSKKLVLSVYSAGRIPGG

[11] = target: T7, whirlin-PDZ2 (aa residues 272-368) (mouse, UniProt Q80VW5-1 272-368); assay: as above; conditions: both partners purified
T7 construct: extra 7 aa at the N-terminus of all recombinant proteins of the study; whirlin, residues 272-368: PDZ2 domain; source: E. coli BL21 (DE3) codonPlus-RIPL, purified (Glutathione Sepharose 4B, GST removed by TEV proteinase, SEC)
T7 sequence: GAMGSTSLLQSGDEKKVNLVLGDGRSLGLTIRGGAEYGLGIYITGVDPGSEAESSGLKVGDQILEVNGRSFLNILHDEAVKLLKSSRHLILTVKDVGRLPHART

[12] = target: T8, whirlin-PDZ3 (aa residues 821-915) (mouse, UniProt Q80VW5-1 821-915); assay: as above; conditions: both partners purified
T8 construct: extra 7 aa at the N-terminus of all recombinant proteins of the study; whirlin, residues 821-915: PDZ3 domain, common to L- and S-whirlin; also called whirlin PDZ3 domain
T8 sequence: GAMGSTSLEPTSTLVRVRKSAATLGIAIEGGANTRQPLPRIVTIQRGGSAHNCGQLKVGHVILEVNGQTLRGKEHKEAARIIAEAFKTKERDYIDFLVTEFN

[13] = target: T9, whirlin-HHD1 (aa residues 30-121) (mouse, UniProt Q80VW5-1 30-121); assay: as above; conditions: both partners purified
T9 construct: extra 7 aa at the N-terminus of all recombinant proteins of the study; whirlin, residues 30-121: harmonin-homology domain 1 (HHD1); also called HHD1 domain alone; source: E. coli BL21 (DE3) codonPlus-RIPL, purified (Glutathione Sepharose 4B, GST removed by TEV proteinase, SEC)
T9 sequence: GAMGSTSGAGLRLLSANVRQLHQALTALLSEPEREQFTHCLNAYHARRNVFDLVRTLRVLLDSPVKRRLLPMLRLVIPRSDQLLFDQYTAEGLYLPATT

[14] = target: T10, whirlin-NTR (aa residues 2-147) (mouse, UniProt Q80VW5-1 2-147); assay: as above; conditions: both partners purified
T10 construct: extra 7 aa at the N-terminus of all recombinant proteins of the study; also called entire NTR of whirlin (containing the HHD1 domain); source: E. coli BL21 (DE3) codonPlus-RIPL, purified (Glutathione Sepharose 4B, GST removed by TEV proteinase, SEC)
T10 sequence: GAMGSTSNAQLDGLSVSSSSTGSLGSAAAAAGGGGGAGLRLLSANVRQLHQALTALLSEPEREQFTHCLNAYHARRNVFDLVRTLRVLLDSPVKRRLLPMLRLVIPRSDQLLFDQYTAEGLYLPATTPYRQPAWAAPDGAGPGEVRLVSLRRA

CDH23 C-terminal peptide = target: T11, CDH23 C-terminal peptide (Mus musculus, UniProt Q99PF4)
T11 chain: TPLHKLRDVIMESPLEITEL

Molecule: PDZ domains of harmonin in tandem association
Kd [1]: > 200 µM
Kd [2]: > 200 µM
Kd [3]: > 200 µM

B2: full-length harmonin-a1 (natural protein)
chain: MDRKVAREFRHKVDFLIENDAEKDYLYDVLRMYHQTMDVAVLVGDLKLVINEPNRLPLFDAIRPLIPLKHQVEYDQLTPRRSRKLKEVRLDRLHPEGLGLSVRGGLEFGCGLFISHLIKGGQADSVGLQVGDEIVRINGYSISSCTHEEVINLIRTKKTVSIKVRHIGLIPVKSSPEESLKWQYVDQFVSESGGVRGGLGSPGNRTTKEKKVFISLVGSRGLGCSISSGPIQKPGIFVSHVKPGSLSAEVGLETGDQIVEVNGIDFTNLDHKEAVNVLKSSRSLTISIVAGAGRELFMTDRERLEEARQRELQRQELLMQKRLAMESNKILQEQQEMERQRRKEIAQKAAEENERYRKEMEQISEEEEKFKKQWEEDWGSKEQLILPKTITAEVHPVPLRKPKSFGWFYRYDGKFPTIRKKAKEKKKAKYDSLQDLRKNKKELEFEQKLYKEKEEMLEKEKQLKINRLAQEVSETEREDLEESEKTQYWVERLCQTRLEQISSAENEIPEMTTGPPPPPPSVSPLAPPLRRFAGGIHLHTTDLDDIPLDMFYYPPKTPSALPVMPHPPSVNSPSKVPAPPVLPSSGHVSSSSSPWVQRTPPPIPIPPPPSIPTQDLTPTRPLPSALEEALGNHPFRTGDPGHPADDWEANTHSGKPSSSPTTERSFPPAPKTFCPSPQPPRGPGVSTISKPVMVHQEHNFVYRPAVKSEVLPQEMLKRMVVYQTAFRQDFRKYEEGFDPYSMFSPEQIAGKDVRLLRIKKEGSLDLALEGGVDSPVGKVVVSAVYEGGAAERHGGVVKGDEIMAINGKIVTDYTLAEAEAALQKAWNQGGDWIDLVVAVCPPKEYDDELSSLPSSAAESPQLARKQLEAYEPVCRHGFFLQLEPTNLLLKSRERNQTDPSWRPASSAPSP
Kd [4]: > 200 µM
Kd [5]: > 200 µM
Kd [6]: > 200 µM

B3: CDH23 C-terminal peptide (biotin-TTDS-VIMESPLEITEL) (peptide)
peptide: {Biotin-TTDS}-VIMESPLEITEL
notes: C-terminal residues of cadherin-23, including the PBM; source: synthetic peptide (Eurogentec); not shown: biotin, N-terminal, kept
Kd [7]: ~20 µM
Kd [8]: 11.3 µM
Kd [9]: 64 µM
Kd [10]: 141 µM
Kd [11]: > 1000 µM
Kd [12]: 4.3 µM
Kd [13]: > 1000 µM
Kd [14]: > 1000 µM

Next, values leading:

Kd [4]: > 200 µM
Kd [5]: > 200 µM
Kd [6]: > 200 µM
B1: harmonin-PDZ3 (aa residues 738-849) (domain or fragment)
chain: DPYSMFSPEQIAGKDVRLLRIKKEGSLDLALEGGVDSPVGKVVVSAVYEGGAAERHGGVVKGDEIMAINGKIVTDYTLAEAEAALQKAWNQGGDWIDLVVAVCPPKEYDDEL

Kd (CDH23 C-terminal peptide): ~4 µM
B4: whirlin PDZ3 (protein)
chain: TSTLVRVRKSAATLGIAIEGGANTRQPLPRIVTIQRGGSAHNCGQLKVGHVILEVNGQTLRGKEHKEAARIIAEAFKTKERDYIDFLVTE
